test: yeast display, Sf9 membrane polyspecificity reagent, FACS + sequencing; frameworks hold sequencing errors
Summary of the method: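 Genes from sorted yeast were amplified by colony PCR, read by MiSeq 2 × 250 sequencing and filtered on CDR length. These cells carried a synthetic nanobody library in Saccharomyces cerevisiae BJ5465 and were sorted by FACS into low and high (top ~1%) gates on anti-HA and streptavidin fluorescence. Polyreactivity is labelled according to the gate of origin.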

Sequence	polyreactivity (PSR sort gate)
QVQLVESGGGLVQAGGSLRLSCAASGFIFFPYVMGWYRQAPGKEREFVAAITGDGGSTYYADSVKGRFTISRDNAKNTVYLQMNSLKPEDTAVYYCAAEFGLWYWDWAASEDYWGQGTQVTVSS	high polyreactivity
QVQLVESGGGLVQAGGSLRLSWAASGRTLWYYTMGWYRQAPGKERELLAGITVSGGSTYYADSVKGRFTISRDNAKNTVYLQMNSLKPEDTAVYYCADGYYSTWKQASRYRYYYWGQGTQVTVSS	high polyreactivity
QVQLVESGGGLVQAGGSLRISCAASGSIFGGYAMGWYRQAPGKERELVAAISSGGSTYYADSVKGRFTISRDNAKNTVYLQMNSLKPEDTAVYYCATSTYAYRRNSYYYTRPRFGYWGQGTQVTVSS	high polyreactivity
HVQLVESGGGLVQAGGSLRLICGASGFTFPNYAMGGYRHAPGKERELVAAITSGGGRTNYADSVKGRFTISRDNAKITVYLQMNSLKPADTAVYYCNAEKTYLGSRYRPYNYWGQGTQVTVSS	low polyreactivity
QVQLVESGGGLVQAGGSLRLSCAASGITFEGYAMRWYRQAPGKERELVAAITGSGSTTYYADSVKGRFTISRDNAKNTVYLQMNSLKPEDTAVYYCAADVSYKLYWGQGTQVTVSS	low polyreactivity
QVQLVESGGGLVQAGGSLRLSCAASGRTFDLYAMGWYRQAPGKERELVATISRTGSTNYADSVKGRFTISRDNAKNTVYLQMNSLKPEDTAVYYCNADVPVSRWLRHGYYTVGYDYWGQGTQVTVSS	low polyreactivity
QVQLVESGGGLVQAGGSLRVSCAPSGIIFGGNVMGWYRQAPGKERELVAGITSTGGRTYYADSVKGRFTISRDNAKNTVYLQMNSLKPEDTAVYYCAAVSTLVRGNFNRIRYGYWGHGTQVTVSS	high polyreactivity
QVQLVESGGGLVQAGGSLRLSCAASGFIFYGYTMGWYRQAPGKERELVAAITRGGSTYYADSVKGRFTISRDNAKNTVYLQMNSLKPEDTAVYYCAALTWDGMDYWGQGTQVTVSS	high polyreactivity
QVQLVESGGGLVQAGGSLRLSCAASGRTFTSNAMGWYRQAPGKERELVAAISNRGTRTYYADSVKGRFTISRDNAKNTVYLQMNSLKPEDTAVYYCAASERDQRFKHYYWGQGTQVTVSS	high polyreactivity
QVQLVESGGGLVQAGGSLRLSCAASGSIFEAYVMGWYRQAPGKQRELVAAITTGGGSTYYADSVKWRFTISRDNAKNTVYLQMNSLKPEDTAVYYCGKDYWFGYEYWGQGTQVTVSS	low polyreactivity
QVQLVESGGGLVQAGGSLRLSCAASGRTFRFDAMGWYRQAPGKEREFVAAISRSVGSTYYADSVKGRFTISRDNAKTTVYLQMNSLKPEDTAVYYCNGDYRSRYVEYDYWGQGTQVTVSS	high polyreactivity
QVQLVESGGGLVQAGGSLRLSCAASGRIFSSYAKGWYRQAPGKERELVAAISRGGGRTYYADSVKGRFTISRDNAKNTVYLQMNSLKPEDTAVYYCATVGRSAAYAFDYWGQGTQVTVSS	high polyreactivity
QVQLVESGGGLVQAGGSLRLSCAASGFTFPSNAMGWYRQAPGKERELYAAISSTDSTNYADSVKGRFTISRDNAKNTFYLQMNSLKPEDTAVYYCAKRYPRYRYNTRGNDYWGQGSQVTVSS	low polyreactivity
QVQLVESGGGLVQAGGSLRLSCAASGGTFSVYGMGGYRQAPGKERELVAAITLSGGRTYYADSVKGRFTISRDNATNTLSLQMNSLQPEDTAVYYCNTLPWSRTKRDYWGQGTQGTVSS	low polyreactivity
QVQLVESGGGLVQAGGSLRLSCAASGSILTAYAMGWYRQAPGKERELVAASNFSGDNTYYADSEKGRFTISRDNAKNTVYLQMNSLKPEDTAVYYCNADGRYAYVWYDYWGQGTQVTVSS	low polyreactivity
QVQLVESGGGLVQAGGSLRLSCAASGLILDGNAMGWYRTAPGKERELVAAITRSGGRTYYADSVKGRFTISRDNAKNTVYFQMNSLKPEDTAVYYCAALGWSGRYRYDYWGQGTQVTVSS	high polyreactivity
QVQLVESGGGLVQAGGSLRLSCAASGSIFTYNVMGWYRHAPGKERELVAAIRTRGDRTYYADSVKGRFTISRDNAKNTVYLQMNSLKPDDTAVYYCAAAGSYYSHEYWGQGTQVTVSS	high polyreactivity
QVQLVESGGGLVQAGGSLRLSCAASGRTFIFYAMGWYRQAPGKERELVAAITYSGTSTYYADSVKGRFTISRDNAKNTVYLQMNSLKPEDTAVYYCAKDGQRDANYYWGQGTQVTVSS	low polyreactivity
QVQLVESGGGLVQAGGSLRLSCAASGSTFSLYDMGWYRQAPGKERELVAAIRWSGDSTYYADSVKGRFTISRDNAKNTVYLQMNSLKPEDTAVYYCAKDQSSPWDIQFLVYGGYEYWGQGTQVTVSS	low polyreactivity
QVQLVESGVGLVQAGGSLSLSCAASGRIFTYNALGWYRQAPGKERELVAAISALGGITYYADSVKGRFTISRDNAKITVYLQMNSLKPEDTAVYYCNKRYSSWSGVHDYWGQGTQVTVSS	high polyreactivity
QVQLVESGGGLVQAGGSLRLSCAASGSTFTINFMGWYRQAPGKERELVAAINGGGRTNYADSVKGRFTISRDNAKNTVYLQMNSLNPEDTAVYYCAAEWRRYEYSDSWEYDYWGQGTQVTVSS	low polyreactivity

Sequence	polyreactivity (PSR sort gate)
QVQLVESGGGLVQAGGSLRLSCAASGRTFRYYAMGWYRPAPGKERELVAAINWSGGTTYYADSVKGRFTISRDNAKNTVYLQMNSLKPEDTAVYYCAAVYGYPSTSRYDYWGQGTQVTVSS	high polyreactivity
QDQLVESRGGLVQAGGSLRLSCAASGINIGTNAMGWYRQAPGKERELVAAISGGGSTDYADSVKGRFTISRDNAKNPVYLQMNSLKPEDPAFYYCAANTGPVPLKGDYWGQGTQVTVSS	low polyreactivity
QVQLVETGGGLVQAGGSLSLSCAGSGHTFTNNAMGWYRQAPGKERELVAAITFSGGRTYYADSVKGRFTISRDNAKNTVYLQKNSLKPEDTAVYYCDAVNPGGSIYDYWGQGTQVTVSS	low polyreactivity
QVQLVESGGGLVQAGGSLRLSCAASGFTFVKNVMGWYRQAPGKERELVADITRRGGTTYYADSVKGRFTISRDNAKNTVYLQMNSLKPEDTAVYYCATEYWYGIYGYDYWGQGTQVTVSS	high polyreactivity
QVQLVESGGGLVQAGGSLRLSCAASGFIFYKNAMGWYRQAPGKERELVAAISASGVRTYYADSVKGRFTISRDNAKNTVYLQMNSLKPEDTAVYYSAADYTPEYYWGQGTQVTVSS	high polyreactivity
QVQLVESGGGLVQAGGSLRLSCAASGYTVAFYDMGWYRQAPRKERELVAAISASGGSTYYADSVKGRFTISRDNAKNTVYLQMNSLKPEDTAVYYCAARSKYRGDMDYWGQGTQVTVSS	high polyreactivity
QVQLVESGGGLVQAGGSLRLSCAASGSTFSDYVMGWYRQAPGKEREFVDAISWTGGITYYADSVKGRFTISRDNAKNTVYLQMNSLKPEDTAVYYSAAKRKYYGNGYWGQGTQVTVSS	high polyreactivity
QVQLVESGGGLVQAGGSLRLSCAASGRTLRKYAMGWYRQAPGKERELVAAITWTGGTTYYADSVKWRFTISRDNAKNTVYLQMNSLKPEDTAVYYCATVRSYGYGYDFWGQGTQVTVSS	high polyreactivity
QVQLVESGGGLVQAGGSLRLSCAASGSTFPGYAMGWYRQAPGKERELVAAGGSTYYADSVKGRFTISRDNAKNTVYFQMNSLKPEDTAGYYCAATWGSVQKGTYYYWGQGTQVTVSS	low polyreactivity
QVQLVESGGGLVQAGGSLRLSCAASGRTFRFNAMGWYRPAPGKERELVAAIRWSGSSTYYADSVKGRFTISRDNAKNTVYLQMNSLKPEDTAVYYSAKRVKTTWFGYWGQGTQVTVSS	high polyreactivity
QVQLVESGGGLVQAGGSLRLSCAASGRIFRKNAMGWYRQAPGKERELVAAITSSGNTYYADSVKGRFTISRDNAKNTVYFQMNSLKPEDTAVYYCAARLKWLNRYGYDYWGQGTQVTVSS	low polyreactivity
QVRLVESGGGLVQAGGSLRLSCAASGRIFGYYTMGWYRQAPGKERELVADNNRDGSTYADSVKGRFTLSRDNAKNTVYLQMNSLKPEDTAVYYCNAQYDSAYGLGFFIGYFSQYDYWGQGTQVTVSS	low polyreactivity
QVQLVESGGGLVQAGGSLRLSCAASGRTIKYYAMGWYRQAPGKERELVAVITYGGSTDYADSVKGRFTISRDNAKNTVYLQLNSLKPEDTAVYYCAAGFGRHYWGYDSWGQGTQVTVSS	low polyreactivity
QVQLVESGGALVQAGGSLGLICAASGSIFRWYAMGWYRQAPGKERELVASINSSGDRTYYADSVKGRFTISRDKAKKTVFLQMNSLNPEDTAVYNCAAQISVKVDFWGQGTQVTVSS	high polyreactivity
QVQLVESGGGLVQAGVSLRLSCAASGSTLYGYAMGWYRQAPGKERELVAAINTGGSTNYADSVKGRFTISRDNSKNTVYLQMNSLKPEDTAVYYCAASYSLTFWDKDDYWGQGTQVTVSS	low polyreactivity
QVQLVESGGGLVQAGGSLRLSCAASGRTFYWNAMGWYRQAPGKERELVAAIRWRGGNTYYADSVKGRFTISRDNAKNTVYLQMNSLKPEDTAVYYCAAAGGKSEMGYWGQGTQVTVSS	high polyreactivity
QVQLVESGGGLVQAGGSLRLSCAASGSTFIYYAMGWYRQAPGKERELVAGISIRGGSTYADSVKGRFTISRDNAKNTVYLQMNSVKPEDTAVYYCNAYKRIKANGYAIRYYYWGQGTQVTVSS	high polyreactivity
QVQLVESGGGLVQAGGSLRLSCAASGRIFGRYAMGWYRQAPGKERELVAVISARGARTYYADSVKGRFTISRDNAKHTVYLQMNSLKPEDTAVYYCAVDQYATDDYWGQGTQVTVSS	high polyreactivity
QVQLVESGGGLVQAGGSLRISCAASGFIFPYNSMGWYREAPGKERELVARISSGGSTNYADSVKGRFTISRDNAKNTVYLQMHSLKPEDTAVYYCNARYRWGWTYLRYGSYDYWGQGTQVTVSS	high polyreactivity
QVQLVESGGGLVQAGGSIRLTCAASGSIFYHYAMGWYRQAPAKERELVADITQSGGTTDYADSVKGRFTISRDNAKNTVYLQMNSLKTEDTAVYYCAADGDTTSPTYYIFWYGEFDYCGQGTQVTVSS	low polyreactivity

Reference: the nanobody polyreactivity screen of Harvey et al. (2022)
